Reference: patent US20070258972A1, “Combination of a Histone Deacetylase Inhibitor with a Death Receptor Ligand” (priority 2003, published 2007)

Test system: Primary AML cells
Test: Apoptosis of primary AML cells by annexin V staining and flow cytometry
Type: cell-based, human
Settings: for % of Apoptosis: LAQ824 100 nM and/or Apo-2L/TRAIL 100 ng/mL, 24 hours
Excerpt: Jurkat T cell leukemia and SKW6.4 B lymphoblast cells are obtained from American Tissue Culture Collection (Manassas, Va.). HL-60/Bcl-2 cells with ectopic over-expression of Bcl-2 and the control HL-60/Neo cells are created and maintained in culture as previously described. Primary leukemia blasts from six patients with AML in relapse are harvested, as previously described, from the peripheral blood or bone marrow after informed consent, as a part of a protocol study sanctioned by the local Institutional Review Board. The purity of leukemia blasts in the samples prior to culture in LAQ824 and/or Apo-2L/TRAIL was at least 80% or more, as determined by morphologic evaluation after Wright staining.
After drug treatments, cells are resuspended in 100 μL of the staining solution containing annexin-V fluorescein and propidium iodide in a HEPES buffer (Annexin-V-FLUOS Staining Kit, Boehringer-Mannheim, and Indianapolis, Ind.). Following incubation at room temperature for 15 minutes, annexin V positive cells are estimated by flow cytometry, as previously described.

B1: Apo-2L/TRAIL: recombinant human trimeric form of Apo-2L/TRAIL from Genentech, Inc., produced in E. coli (protein, UniProt P50591 1-281, looked up)
Tumor necrosis factor ligand …: MAMMEVQGGPSLGQTCVLIVIFTVLLQSLCVAVTYVYFTNELKQMQDKYSKSGIACFLKEDDSYWDPNDEESMNSPCWQVKWQLRQLVRKMILRTSEETISTVQEKQQNISPLVRERGPQRVAAHITGTRGRSNTLSSPNSKNEKALGRKINSWESSRSGHSFLSNLHLRNGELVIHEKGFYYIYSQTYFRFQEEIKENTKNDKQMVQYIYKYTSYPDPILLMKSARNSCWSKDAEYGLYSIYQGGIFELKENDRIFVSVTNEHLIDMDHEASFFGAFLVG
modifications: trimeric
notes: recombinant human trimeric form of Apo-2L/TRAIL from Genentech, Inc., produced in E. coli
Question: Which results are given for B1?
Answer: % of Apoptosis (Patient 1 primary AML cells, control 7.0): 7.6%; % of Apoptosis (Patient 2 primary AML cells, control 12.0): 14.0%; % of Apoptosis (Patient 3 primary AML cells, control 8.0): 8.6%; % of Apoptosis (Patient 4 primary AML cells, control 10.0): 11.0%; % of Apoptosis (Patient 5 primary AML cells, control 6.0): 6.8%; % of Apoptosis (Patient 6 primary AML cells, control 7.0): 8.1%; apoptosis of primary AML blasts (in words) (six samples, relapsed AML, Apo-2L/TRAIL 100 ng/mL, LAQ824 100 nM): resistant
